assay: soluble fraction after stress (log2 fold change); higher = more stays soluble; pooled small domains, quantitative proteomics; details: stress: pH 4
In short: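 Following acid stress at pH 4, the amount of each small protein domain still soluble was measured in pooled custom libraries by high-throughput quantitative proteomics. Its fold change, on a log2 scale, is higher when more of the domain stayed soluble. This fold change is taken as a measure of aggregation propensity.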

Sequence | soluble fraction (log2)
HMQELKWERNYKLVQDYIKQYGVLPSKNTKYANVSIGRWLTNQHELVKEDNLAPERFEKIKELDT | 0.303
HMQENDLGAVEKIVDDVLHDPKNAQAVADFKAGSEKVLGFLTGQVMKASRGKANPSVVQEVLRQKLKN | -0.0461
HMQENVIIYPNPTKSVIYLSEKVEFILYNILGEIIFIGDNNKIDLNSFDNGVYIFESGNVRTQIIK | 0.204
HMQEQIVQGIVKYFDAEKQFGFIAGDDGVDRFFNAKSIQGNAVKTGDRVRFLAISHIRGPRALKISA | -0.566
HMQEQSSYVGQFGTAATTLRPSGTVELEDGTRIDVVTVGEFIEKGEPVQVVRKDGTWLVVEKRRSK | 0.122
HMQERKYTVSFNTNGGSTINDQKITSGNVIISPGAPKRSGYTFVGWYYHGQPFDLNTKINQDYVLVAKWIK | 0.207
HMQETILFGQQKAINNLSSDTGLSENDLDSYLKKRYKKPLYQLTQSEGADIINGFQDGSLSKNSILDYIKP | 0.22
HMQEVKVRLKPDYLGEVLIKVISDKGELKAELFVSNSQVRSLLRAYAVEFQNQIRDQGYNFSEINVYR | -0.518
HMQFAEIPNFSEMALQILRLQADGLSITKIAEALHMNPRTVKYHAQENYRKLQASNKSEALLAARNLNL | -0.418
HMQFEIGDTVRVHVNIREGERERVQMFEGTVIAKRGSGVSETFTVRRVSYGVGVERVFPVNSPNV | 0.22
HMQFETVQDAFNHYRNASLEEIESRAAEIKGIIESDPEADVRALNIEIEGLHQAKQNILEKQKTK | -0.064
HMQFLGKVTVTHARQANLRAQPSMDAAIVGKVNPGEVYNVVSIPKTSWYEIQLQNGKTVFIAAGMVSFRM | 0.209
HMQFSAVVLDMETRRQVAGVAVYINPKGVVKTDMRGRFVIDGAFNSVTLVRQGYESLTLERSEMTDSIWM | -1.07
HMQGEASDAQLKAIFAIARKLGITDDFEVHRKASRLAGVPEPEVLPSLKSLTYAQASAVIKALQEELE | -0.0238
HMQGENDVTIDPKKLTIGDLAKEISKIEDSEELNNILVAEKEGKGRKGAINAITERIENVSGGTG | 0.22
HMQGLIGEQKAIQIALSRVPGAKPEHVRELKLDYDDGMQLYEGEIFYNFREYEFEINAVTGEVVGWEI | -0.839
HMQHRSRALHLQEELVRRYYDQAIAPFMIFWEMKANVTLDQLKELRAVVSPSLNEHPYTKQLDEYIRLAE | -0.275
HMQIEQVDYGTFMTMIDDKKIDKVEIKDNQILFIGKDDNKKYKTGIVQDPQLAERLHASGAVFSQDI | -0.158
HMQIIGEQNQKDFIALFGAILRMRNLLLSFDEFKGNELISERDLQDYLGRYQDLRDEWRNKRRER | -0.654
HMQINDSSVVQKAVNDVIDQNSKAVSDYWDGKEGAAKFLMGQVMKLTRGQANPDLANQLILTRLQQERV | 0.182
HMQISDEAALLAIVDRVIADNQGPLANYLGGKQSLLGWFVGQVMRATRGQAIPAVVNRLVGERLAAQREE | -0.278
HMQISDESQLREVVSKILEENEQSVIDYKNGKTRAMGFIIGQVMKATRGKANPQLVNEIVKEMLDE | -0.137
HMQISDTASIQEIAKEIIKSNPKAVEDYKKGKENALQFLVGQLMTKTKGTVHPGAARTILGDILK | -0.205

Sequence | soluble fraction (log2)
HMQISDTSELEAVVQDILKANMDVVAKIKAGKTNSANFLMGQVMKLTKGRAKPDTVLQLILDAVKQ | -0.374
HMQISLAAARVNAGLTQEEVAKAMKVGKQTIVSWEKGNSEPKMSQSRELSELYKIPLDYIFYP | 0.138
HMQITDSGAIETIIDKIIADNPGQVTQYLSGKDKVFGFFVGQTMKASQGKANPAEVNKILQEKLK | -0.029
HMQITQSSEPIDVSALRLGMFIHLEGGWLSHPFPRSSFKITSEDQLVTLRSLGISVLRWSPELSDPE | -1.46
HMQIVPVDYSTFMQSIDDKTVDHVEIQSNQILYTVKDDHKKYKTGIMNDPTLAQRLMESGATFTQD | 0.185
HMQKAEQIGSLLREKRKSMGLTQDELAQQVEVRRQTLADLELGKNVGSHLLIKVMEHLGVGFDLL | -0.962
HMQKEIKVPDVANMALSEAVEKLQNEGFKVADEQKEVSSDEIEEGKVVKTSPVAGTKKTKGSEITIYISSG | 0.22
HMQKFLEATGENRDAAVENALEQLGLERDDVSVEVLEIGKKGFLGIGATPARVRVTYEAPDI | -1.51
HMQKKEVTVPEVRSKSLKEAAQILSEQNLKYETEPVNVENPDMVVIDQFPKPGGKISEQSVIILYLR | 0.146
HMQKLNIEEQIVYDIIFKNKELSANEIQIKSGIKTSILNALLINLEIKQYIKLKFGNFYEIK | -1.63
HMQKMPEMQILPNGKVKLPDFSGINMRKAAELLQYGKLRLQPYGSGTAYQQKPAAGTEVDEGTVVEIWF | 0.189
HMQKNFYQILGVDSKASPATINAAYERAKSRVIQSGLEDPDTMALLRDAWETLADPGDRAAYDESLAT | -0.0938
HMQKPELLAPAGSLEKAKTAFKYGADAVYMGTSNLSLRSRVTVDDDELIKTIEYAHSINKKVYAALNIYAR | 0.134
HMQKPWFYESSGQRKGGFSEQEMVGLITDGEITHGAIVWRNGLSDWTKLEQTELAAHLDKTA | -1.06
HMQKRDQKKRANMLDSLKVGTRIVTIGGIFGEIAKIKDDRIRIKVAEDVEIWIRRAAVGTVIT | ≥ 0.43
HMQKTPFEIMTIYKDQILEMLGKDLTATEISIVLKKKGEKVHPREIRKFQLQHYEEVQDMRKKWRE | -0.632
HMQKWILVNKQGRLSGILDHRAFNTRESATAWFQRTSDISGGTIKIDDYYYVLKNEEYKLLKE | -1.34
HMQKYEDIINVTRERLQNKFYSQTVIPTDDDIYIWLDKVAILEEIKLSKEDRQMLFNLLKKEAT | -0.879
HMQLGQMIVKLRKEQGLTQETFAKKFNVTRQTVSNWENEKSYPDLHTLVKISDEFHLSLDILLK | 0.272
HMQLGSILAYKFPQFGGIDGAWQVRDDSNGTGPYIAFWDAKTIGRGMPTEDELTAWAQEYEA | -1.38
HMQLPTPEDLKKRRNELGLTQSDLAKRAGVSQPLIARIESGDVDPRLSTVRKILDAFEEVEKEQQ | 0.0627
HMQLSASQQQILNHAAVNTDGKLVWFPETLKGGARKKVLDSLFSRALITTDGTHWFVAAEGYEALGIP | -0.0982
HMQLTDLSALEAIIKEVLAANPKSVEDYKSGKEKAFGSLVGQAMKATKGKANPETVNSLLRKNLN | -0.0162

Sequence | soluble fraction (log2)
HMQLTDSDFTRLYTYVKNSYGIDLSKKKQLISSRLTNMLIQQGYRDFTQYTDEIISGKNPEMVSAMLNRLT | 0.0695
HMQLTPAQHAILAKAIHSSDGKIEWFPDNVKGGARKKVLEGMFNRALITPDGEGWRIAAEGYDALGMPRP | 0.165
HMQLVGSSAAVLIPAPAGGLGKIRLEFRGQTIDLIAKATDGGALIEGGAVTIVDVRDGQADVSV | -0.329
HMQMMDATLKIPPSMGKLRGTLYELNSVTSEDVDENGQLALHVRLSSVDWQRLKKRFDSNLDELIVQKN | -0.427
HMQMPLTMATMGEVNKIVKVGGNEETRRFLANLGFVAGAEVVVLSKIGGNVIVNVKDSRVAVNEDMARHIM | -0.692
HMQMSDTAAIGKIVDEVFAENPAALEDYAKGKTNVVDWLTGQVMKKSRGQANPGIASELVQKRLADF | 0.101
HMQMSDTGAIEAMVKEALDENPQAIEDFKNGKGKALGFLMGQVMKKSKGQANGGIVNKLIKEELQKRIG | 0.315
HMQMTKSEFLDALRRALNGNMAAASVDDNIRFYDSYFYTEETKGRSEAEILSELGDPRILARTLIDAAD | -0.382
HMQNEIQQLAIDLIARAHKSGASDIHIVDTGTYTRIKFRVLGLLREDSQMEAETGRQMISTIYGILG | -0.19
HMQNEKLSYFVTETIVTERADLFITKKFPQFSRSQIQKLINSGNITINSNPIKASTEIINKDNIEITIPV | -0.814
HMQNESGLFTMSDLWEAGLMGSENASRKRAAVGAFLGIGFGNGKQFLKRLNHFGVTKEEWESALEQLGE | -0.447
HMQNEVMPYSTFLSEVNSGNVTKVKIDHEQLTGTLKSGKQFTTYILDAATLPSIVAEKGVEVEVVPP | 0.195
HMQNGNYVVQRQDSLWSIAARISGQTHQPIGEVMNHIKALNEHAFVGGNVNRLRTGTNLNLG | 0.125
HMQNKRQEQLLALLAERRDYMTSRQLAEILQVSDRTIRSDVEAINRRSSPPPIESNVRQGYRLNPEA | -0.0908
HMQNNIEFTVLEEDAQKRLDVLLSEKTALSRSASASLIEEGGVLVNGRKEPKKYKPVRGEIITAILPE | -0.549
HMQNNTIAFSKFLQEVDNGRVVQVEIQGNNINGILSDGSKFNTYSPNYPALVEKLSEKNVNIVASPV | 0.385
HMQNPDHLLALAAAAQAAIELGRPDEAEAYYRHLVEVYGVEMASQKPEYLDHSGITNDLRNVAEGFLVG | -1.32
HMQNRIVNTTQGLAADKRGLLVADETGHTTRPGIFASGDVVNGARTVVEAVAHSKIVAESMHQYMQ | ≥ 0.43
HMQNSLKAFRVKRGLTTSALSRLTNGEFSTSRISNYETGVRALTIDAAKKLAPHLGASPAQLLNL | 0.371
HMQNSPVFAASDIEDIRVGMTVEHQRFGQGRVMSIEGNGPNKKTTVLFEGIGEKQLLLQYAKLKIV | -0.242
HMQNYLLFEEAKNIVNTLNLTNEKDWSEFIKKDFTYKNQIPIFPNQYYKHKGWVDWNDWLGINK | -1.62
HMQNYTTIIGVIELRLNDISYDNVRKRYHIGRSGITLIMDRYRDSGLSLEDLKQMTPEKVVDLFYPR | 0.0145
HMQPAALEAQVIKLVRLHAPIKARQLATILANEFGQHVDRSTVNSLLYQLRAQGKVAQNAAYQWSLT | -0.0984

— the domain aggregation screens of Martell et al. (2025)
